B1: Ameloblastin (Homo sapiens), Q9NP70 (parent)
chain: MSASKIPLFKMKDLILILCLLEMSFAVPFFPQQSGTPGMASLSLETMRQLGSLQRLNTLSQYSRYGFGKSFNSLWMHGLLPPHSSLPWMRPREHETQQYEYSLPVHPPPLPSQPSLKPQQPGLKPFLQSAAATTNQATALKEALQPPIHLGHLPLQEGELPLVQQQVAPSDKPPKPELPGVDFADPQGPSLPGMDFPDPQGPSLPGLDFADPQGSTIFQIARLISHGPMPQNKQSPLYPGMLYVPFGANQLNAPARLGIMSSEEVAGGREDPMAYGAMFPGFGGMRPGFEGMPHNPAMGGDFTLEFDSPVAATKGPENEEGGAQGSPMPEANPDNLENPAFLTELEPAPHAGLLALPKDDIPGLPRSPSGKMKGLPSVTPAAADPLMTPELADVYRTYDADMTTSVDFQEEATMDTTMAPNSLQTSMPGNKAQEPEMMHDAWHFQEP

Variants of: B1
Conditions: with fa20c_human FAM20C

Effect of a mutation on the interaction, with no effect:
MSASKIPLFKMKDLILILCLLEMSFAVPFFPQQAGTPGMASLSLETMRQLGSLQRLNTLSQYSRYGFGKSFNSLWMHGLLPPHSSLPWMRPREHETQQYEYSLPVHPPPLPSQPSLKPQQPGLKPFLQSAAATTNQATALKEALQPPIHLGHLPLQEGELPLVQQQVAPSDKPPKPELPGVDFADPQGPSLPGMDFPDPQGPSLPGLDFADPQGSTIFQIARLISHGPMPQNKQSPLYPGMLYVPFGANQLNAPARLGIMSSEEVAGGREDPMAYGAMFPGFGGMRPGFEGMPHNPAMGGDFTLEFDSPVAATKGPENEEGGAQGSPMPEANPDNLENPAFLTELEPAPHAGLLALPKDDIPGLPRSPSGKMKGLPSVTPAAADPLMTPELADVYRTYDADMTTSVDFQEEATMDTTMAPNSLQTSMPGNKAQEPEMMHDAWHFQEP [S34A]
MSASKIPLFKMKDLILILCLLEMSFAVPFFPQQSGTPGMASLSLEAMRQLGSLQRLNTLSQYSRYGFGKSFNSLWMHGLLPPHSSLPWMRPREHETQQYEYSLPVHPPPLPSQPSLKPQQPGLKPFLQSAAATTNQATALKEALQPPIHLGHLPLQEGELPLVQQQVAPSDKPPKPELPGVDFADPQGPSLPGMDFPDPQGPSLPGLDFADPQGSTIFQIARLISHGPMPQNKQSPLYPGMLYVPFGANQLNAPARLGIMSSEEVAGGREDPMAYGAMFPGFGGMRPGFEGMPHNPAMGGDFTLEFDSPVAATKGPENEEGGAQGSPMPEANPDNLENPAFLTELEPAPHAGLLALPKDDIPGLPRSPSGKMKGLPSVTPAAADPLMTPELADVYRTYDADMTTSVDFQEEATMDTTMAPNSLQTSMPGNKAQEPEMMHDAWHFQEP [T46A]
MSASKIPLFKMKDLILILCLLEMSFAVPFFPQQSGTPGMAALSLETMRQLGSLQRLNTLSQYSRYGFGKSFNSLWMHGLLPPHSSLPWMRPREHETQQYEYSLPVHPPPLPSQPSLKPQQPGLKPFLQSAAATTNQATALKEALQPPIHLGHLPLQEGELPLVQQQVAPSDKPPKPELPGVDFADPQGPSLPGMDFPDPQGPSLPGLDFADPQGSTIFQIARLISHGPMPQNKQSPLYPGMLYVPFGANQLNAPARLGIMSSEEVAGGREDPMAYGAMFPGFGGMRPGFEGMPHNPAMGGDFTLEFDSPVAATKGPENEEGGAQGSPMPEANPDNLENPAFLTELEPAPHAGLLALPKDDIPGLPRSPSGKMKGLPSVTPAAADPLMTPELADVYRTYDADMTTSVDFQEEATMDTTMAPNSLQTSMPGNKAQEPEMMHDAWHFQEP [S41A]
MSASKIPLFKMKDLILILCLLEMSFAVPFFPQQSGAPGMASLSLETMRQLGSLQRLNTLSQYSRYGFGKSFNSLWMHGLLPPHSSLPWMRPREHETQQYEYSLPVHPPPLPSQPSLKPQQPGLKPFLQSAAATTNQATALKEALQPPIHLGHLPLQEGELPLVQQQVAPSDKPPKPELPGVDFADPQGPSLPGMDFPDPQGPSLPGLDFADPQGSTIFQIARLISHGPMPQNKQSPLYPGMLYVPFGANQLNAPARLGIMSSEEVAGGREDPMAYGAMFPGFGGMRPGFEGMPHNPAMGGDFTLEFDSPVAATKGPENEEGGAQGSPMPEANPDNLENPAFLTELEPAPHAGLLALPKDDIPGLPRSPSGKMKGLPSVTPAAADPLMTPELADVYRTYDADMTTSVDFQEEATMDTTMAPNSLQTSMPGNKAQEPEMMHDAWHFQEP [T36A]
